target: acetylcholine receptor; experiment: SPR, receptor immobilized on CM5 chip, peptide 10 uM

Binder | Binding affinity (RU)
RKFSNK [6mer-1-886] | 17 RU
KRINHR [6mer-1-887] | 30 RU
KKTANK [6mer-1-888] | 33 RU
KRIMEK [6mer-1-889] | 25 RU
RRTSNK [6mer-1-890] | 18 RU
RKMAFR [6mer-1-891] | 13 RU
RKTEKR [6mer-1-892] | 20 RU
RRIPHR [6mer-1-893] | 22 RU
RKCWWR [6mer-1-894] | 18 RU
KKDSKK [6mer-1-895] | 28 RU
KRDWIK [6mer-1-896] | 11 RU
RRPSIK [6mer-1-897] | 24 RU
RKATKR [6mer-1-898] | 31 RU
KRMKWK [6mer-1-899] | 31 RU
RRDTGR [6mer-1-900] | 24 RU
RKPNGR [6mer-1-901] | 35 RU
RRDKMK [6mer-1-902] | 39 RU
KKHKPR [6mer-1-903] | 37 RU
KKDTKR [6mer-1-904] | 31 RU
RRICER [6mer-1-905] | 36 RU
KKINGK [6mer-1-906] | 30 RU
RKPAWR [6mer-1-907] | 42 RU
KKFMVR [6mer-1-908] | 37 RU
RKFCMR [6mer-1-909] | 33 RU
KRPTIR [6mer-1-910] | 42 RU
KRCAAR [6mer-1-911] | 28 RU
KKETFR [6mer-1-912] | 33 RU

Binder | Binding affinity (RU)
KRFWWK [6mer-1-913] | 27 RU
RRKCVR [6mer-1-914] | 39 RU
RKDTWK [6mer-1-915] | 27 RU
RRNAAK [6mer-1-916] | 33 RU
KRADDK [6mer-1-917] | 27 RU
RRESMR [6mer-1-918] | 33 RU
RKDHIK [6mer-1-919] | 26 RU
RRPAMR [6mer-1-920] | 40 RU
RKFWHR [6mer-1-921] | 36 RU
RRDWGR [6mer-1-922] | 34 RU
RRASDR [6mer-1-923] | 43 RU
RKFNWR [6mer-1-924] | 29 RU
KKAMHR [6mer-1-925] | 42 RU
KRESDR [6mer-1-926] | 40 RU
KRESHR [6mer-1-927] | 37 RU
KRYCPK [6mer-1-928] | 30 RU
RRCDHK [6mer-1-929] | 25 RU
KKESNK [6mer-1-930] | 43 RU
KKNWPR [6mer-1-931] | 35 RU
KRYSRR [6mer-2-402] | 145 RU
KGVLRK [6mer-2-403] | 123 RU
RVLSKR [6mer-2-404] | 121 RU
KGYRKK [6mer-2-405] | 137 RU
KGIYRR [6mer-2-406] | 139 RU
KQVSKR [6mer-2-407] | 122 RU
KQIYRR [6mer-2-408] | 139 RU
KRRRKR [6mer-2-409] | 139 RU

Binder | Binding affinity (RU)
KRFRKK [6mer-2-410] | 153 RU
RSRQKK [6mer-2-411] | 121 RU
KRFLKK [6mer-2-412] | 139 RU
RLILKR [6mer-2-413] | 136 RU
KWRQKK [6mer-2-414] | 135 RU
KGRCKK [6mer-2-415] | 149 RU
RWRLRR [6mer-2-416] | 131 RU
RWVYKK [6mer-2-417] | 151 RU
RVQYKK [6mer-2-418] | 121 RU
RSRYKK [6mer-2-419] | 154 RU
RRQYRK [6mer-2-420] | 128 RU
KVICRK [6mer-2-421] | 124 RU
RLITRR [6mer-2-422] | 154 RU
RLQYRK [6mer-2-423] | 154 RU
RLYCKK [6mer-2-424] | 139 RU
KLQTKK [6mer-2-425] | 145 RU
KGQRRK [6mer-2-426] | 141 RU
RLQRRR [6mer-2-427] | 147 RU
KVFLKK [6mer-2-428] | 142 RU
RWRQRK [6mer-2-429] | 123 RU
RWFRRR [6mer-2-430] | 139 RU
KLILKR [6mer-2-431] | 135 RU
KVVRKR [6mer-2-432] | 148 RU
RWIQKR [6mer-2-433] | 139 RU
RVIRRK [6mer-2-434] | 154 RU

— patent US20250011363A1, “OPTIMIZED SHORTENED PEPTIDE THAT BINDS TO ACETYLCHOLINE RECEPTOR, AND USE THEREOF” (SKINMED CO., LTD., priority 2021, published 2025)
